Consider 62 variants from the MegaScale stability set (Tsuboyama et al. 2023).

The labels stand for the following.
B1: EHEE_rd4_0726 (parent)
chain: DIEITTNGEEDAKRVIKELQKRNLEYHIEVHGNQWVIKVR

Variants of B1 are the subject of the data set. Nature of the data set: folding stability dG (cDNA display proteolysis); higher = more stable. The settings on record: PBS, room temperature.
For DIEITTNGEEDAKRVIKELQKRNLEYHIEVHGCQWVIKVR, the “folding stability dG” value was 8.2 kJ/mol. In the case of DIEITTNGEEDAKRVIKELQKRNLEYHIEVHGKQWVIKVR it was 8.04 kJ/mol; in that of DIEITTNGEEDAKRVIKELQKRNLEYHIEVHGHQWVIKVR, 8.48 kJ/mol; in that of DIEITTNGEEDAKRVIKELQKRNLEYHIEVHGPQWVIKVR, 7.47 kJ/mol. The figure for DIEITTNGEEDAKRVIKELQKRNLFYHIEVHGNQWVIKVR is 10.4 kJ/mol. Take DIEITTNGEEDAKRVIKELQKRNLWYHIEVHGNQWVIKVR: the “folding stability dG” value came to 10.6 kJ/mol. The figure for DIEITTNGEEDAKRVIKELQKRNLHYHIEVHGNQWVIKVR is 11.3 kJ/mol; for DIEITTNGEEDAKRVIKELQKRNLQYHIEVHGNQWVIKVR it is 10.9 kJ/mol; for DIEITTNGEEDAKRVIKELQKRNLPYHIEVHGNQWVIKVR it is 9.76 kJ/mol. In the case of DIEITTNGEEDAKRVIKELQKRNLEYTIEVHGNQWVIKVR it was 14 kJ/mol.

In the case of DIEITTNGEEDAKRVIKECQKRNLEYHIEVHGNQWVIKVR, the “folding stability dG” value came out at 6.64 kJ/mol. The figure for DIEITTNGEEDAKRVIKEHQKRNLEYHIEVHGNQWVIKVR is -2.52 kJ/mol; for DIEITTNGEEDAKIVIKELQKRNLEYHIEVHGNQWVIKVR it is 9.17 kJ/mol; for DIEITTNGEEDAKAVIKELQKRNLEYHIEVHGNQWVIKVR it is 9.73 kJ/mol.

In the case of DIEITTNGEEDAKYVIKELQKRNLEYHIEVHGNQWVIKVR, the “folding stability dG” value was 9.22 kJ/mol. For DIEITTNGEEDAKRVIKELQKRNLEYHINVHGNQWVIKVR, the “folding stability dG” value came out at 5.88 kJ/mol. In the case of DIEITTNGEEDAKRVIKELQKRNLEYHIHVHGNQWVIKVR it was 7.43 kJ/mol. In the case of DIEITTNGEEDAKRVIKELQKRNLEYHITVHGNQWVIKVR it was 9.75 kJ/mol; in that of DIEITTNGEEDAKRVIKELQKRNLEYHIVVHGNQWVIKVR, 9.61 kJ/mol; in that of DIEITTNGLEDAKRVIKELQKRNLEYHIEVHGNQWVIKVR, 9.86 kJ/mol. On to DIEITTNGIEDAKRVIKELQKRNLEYHIEVHGNQWVIKVR, for which the “folding stability dG” value worked out at 10.4 kJ/mol. In the case of DIEITTNGVEDAKRVIKELQKRNLEYHIEVHGNQWVIKVR it was 8.99 kJ/mol.

As for DIEITTNGEFDAKRVIKELQKRNLEYHIEVHGNQWVIKVR, the “folding stability dG” value stood at 8.57 kJ/mol. As to DIEITTNGEMDAKRVIKELQKRNLEYHIEVHGNQWVIKVR, the “folding stability dG” value was found to be 8.57 kJ/mol. Turning to DIEITTNGECDAKRVIKELQKRNLEYHIEVHGNQWVIKVR, the “folding stability dG” value turned out to be 10.2 kJ/mol.

Turning to DIEITTNGEIDAKRVIKELQKRNLEYHIEVHGNQWVIKVR, the “folding stability dG” value was 8.4 kJ/mol. In the case of DIEITTNGENDAKRVIKELQKRNLEYHIEVHGNQWVIKVR it was 8.08 kJ/mol; in that of DIEITTNGEADAKRVIKELQKRNLEYHIEVHGNQWVIKVR, 10 kJ/mol; in that of DIEHTTNGEEDAKRVIKELQKRNLEYHIEVHGNQWVIKVR, 2.92 kJ/mol.

DIEQTTNGEEDAKRVIKELQKRNLEYHIEVHGNQWVIKVR: the “folding stability dG” value came to 0.393 kJ/mol. In the case of DIEETTNGEEDAKRVIKELQKRNLEYHIEVHGNQWVIKVR it was 0.0711 kJ/mol. The figure for DIHITTNGEEDAKRVIKELQKRNLEYHIEVHGNQWVIKVR is 9.65 kJ/mol; for DIEITTNGEEDAKRVIKELQKRNLEYHIEVHGNQWVVKVR it is 6.28 kJ/mol; for DREITTNGEEDAKRVIKELQKRNLEYHIEVHGNQWVIKVR it is 8.26 kJ/mol.

On to DKEITTNGEEDAKRVIKELQKRNLEYHIEVHGNQWVIKVR, for which the “folding stability dG” value came out at 6.62 kJ/mol.

Regarding DVEITTNGEEDAKRVIKELQKRNLEYHIEVHGNQWVIKVR, the “folding stability dG” value was 9.02 kJ/mol. For the variant DLEITTNGEEDAKRVIKELQKRNLEYHIEVHGNQWVIKVR, the “folding stability dG” value is 10.6 kJ/mol. In the case of DNEITTNGEEDAKRVIKELQKRNLEYHIEVHGNQWVIKVR it was 6.22 kJ/mol; in that of DIEITTNGEEDAKRVIKELQKRNHEYHIEVHGNQWVIKVR, 4.73 kJ/mol. The figure for DIEITTNGEEDAKRVIKELQKRNQEYHIEVHGNQWVIKVR is 6.05 kJ/mol. In the case of DIEITTNGEEDAKRVIKELQKRNMEYHIEVHGNQWVIKVR it was 9.15 kJ/mol. Take DIEITTNGEEDAKRVIKELQKRNPEYHIEVHGNQWVIKVR: the “folding stability dG” value was -0.477 kJ/mol. In the case of DIEITTNGEEDAKRVIKELQKRNAEYHIEVHGNQWVIKVR it was 7.13 kJ/mol; in that of DIEITTNGEEDAKRVIKELQKRNLEYHIEDHGNQWVIKVR, 2.2 kJ/mol.

Take DIEITTNGEEDAKRVIKELQKRNLEYHIERHGNQWVIKVR: the “folding stability dG” value was 10.2 kJ/mol. In the case of DIEITTNGEEDAKRVIKELQKRNLEYHIENHGNQWVIKVR, the “folding stability dG” value is 6.58 kJ/mol.

DIEITTNGEEDAKRVIKELQKRNLEYHIEMHGNQWVIKVR: the “folding stability dG” value worked out at 8.4 kJ/mol. Turning to DIEITTNGEEDAKRVIKELQKRNLEYHIETHGNQWVIKVR, the “folding stability dG” value turned out to be 7.15 kJ/mol. In the case of DIEITTNGEEDAKRVIKELQKRNLEYHIEHHGNQWVIKVR it was 8.11 kJ/mol; in that of DIEITTNPEEDAKRVIKELQKRNLEYHIEVHGNQWVIKVR, 0.916 kJ/mol.

Take DIEITTNTEEDAKRVIKELQKRNLEYHIEVHGNQWVIKVR: the “folding stability dG” value is 12.9 kJ/mol. As to DIEITTNEEEDAKRVIKELQKRNLEYHIEVHGNQWVIKVR, the “folding stability dG” value was found to be 7.39 kJ/mol. In the case of DIEITTNNEEDAKRVIKELQKRNLEYHIEVHGNQWVIKVR it was 13.5 kJ/mol; in that of DIEITTNGEEDAKRVIKRLQKRNLEYHIEVHGNQWVIKVR, 8.4 kJ/mol; in that of DIEITTNGEEDAKRVIKFLQKRNLEYHIEVHGNQWVIKVR, 11.4 kJ/mol.

Take DIEITTNGEEDAKRVIKELQKRPLEYHIEVHGNQWVIKVR: the “folding stability dG” value came to 2.36 kJ/mol. In the case of DIEITTNGEEDAKRVIKELQKRHLEYHIEVHGNQWVIKVR it was 10 kJ/mol; in that of DIEITTNGEEDAKRVIKELQKRWLEYHIEVHGNQWVIKVR, 6.3 kJ/mol; in that of DIEITTNGEEDAKRVIKELQKRKLEYHIEVHGNQWVIKVR, 10.1 kJ/mol. The figure for DIEITTNGEEDAKRVIKELQKRSLEYHIEVHGNQWVIKVR is 8.14 kJ/mol; for DIEITTNGEEDAKRGIKELQKRNLEYHIEVHGNQWVIKVR it is -0.891 kJ/mol. In the case of DIEITTNGEEDAKRTIKELQKRNLEYHIEVHGNQWVIKVR it was 5.32 kJ/mol.
